{"source": "IntAct's records for PubMed 11250154", "parents": {"B1": {"name": "Virulence protein F (Agrobacterium tumefaciens (strain 15955)), P15597 (parent)", "chain": "MRNSSLRDASGSNDAQVPHKTELLNLPDHVLTEVAKRLATNNPVESAENIANFSKSHRFTRDAVRTEPLEKFSSRLKILSRNAKLLSHAVRHAATLPDGEQLSEAQLSQMRSEVATRPVLGVAYTHQDGQPEERLSGNHLDHKINNIPNLVFNVAEPIMFNEISALEVMAEVRPIARSIKTAHDDARAELMSADRPRSTRGL"}}, "data": [{"variants_of": "B1", "conditions": "with skp1a_arath SKP1A", "values": [{"variant": "L26A;P27A", "effect of a mutation on the interaction": "decreasing interaction strength"}]}, {"variants_of": "B1", "conditions": "with skp1b_arath SKP1B", "values": [{"variant": "L26A;P27A", "effect of a mutation on the interaction": "decreasing interaction strength"}]}]}
